Measured values reported in patent US20120039878A1 (ELAN PHARMACEUTICALS, published 2012).

T1: peptide 66, CGGHEAT
T1 peptide: CGGHEAT

T2: peptide 68, CGGHEDTM
T2 peptide: CGGHEDTM

T3: peptide 69, CGGHEDTMA
T3 peptide: CGGHEDTMA

T4: peptide 70, CGGHEDTMAD
T4 peptide: CGGHEDTMAD

T5: murine AA amyloid (AA fibrils; amyloid enhancing factor extract, AEF) (mouse)
T5 construct: also called Mouse AA (AEF); murine AA AEF
T5 sequence (P05366 whole entry, looked up): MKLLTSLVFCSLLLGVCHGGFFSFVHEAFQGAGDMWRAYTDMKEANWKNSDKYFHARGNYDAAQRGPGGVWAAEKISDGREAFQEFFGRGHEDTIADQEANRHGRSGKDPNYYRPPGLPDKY

T6: human AA amyloid (human renal AA amyloid extract; AA deposits in human tissue) (human)
T6 construct: also called human AA amyloid extract; human AA amyloid fibrils
T6 sequence (P0DJI8 19-94, looked up): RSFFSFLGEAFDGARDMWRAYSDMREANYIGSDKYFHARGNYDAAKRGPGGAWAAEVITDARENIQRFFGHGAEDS

T7: peptide 65, CGGHADT
T7 peptide: CGGHADT

T8: peptide 71, CGGHED
T8 peptide: CGGHED

B1: murine monoclonal antibody 7D8 (ATCC Accession Number PTA-9468) (antibody, mouse IgG2b, V domains shown)
VH: EVQLVESGGRLVQPKGSLKLSCAASGFTFNTYAMYWIRQAPGKGLEWVARIRSKSNNYAIYYADSVKDRFTIFRDDSQSMLYLQMNNLKTEDTAMYYCVRPYSDSFAYWGQGTLVTVSA
VL: DVVMTQTPLSLPVSLGDQASISCRSSLSLVHSTGNTYLHWYLQKPGQSPKLLIYKVSNRFSGVPDRFSGSGSGTYFTLKISRVEAEDLGVYFCSQSTHVPFTFGGGTKLEIK
notes: Murine IgG2b kappa; also called mAb 7D8; 7D8.29.19.47

Tests used:
[1] = molecular target: B1; assay: BIAcore competition: peptide p41 in solution with mAb 7D8 (6.6 nM) injected over immobilized Vλ6 Wil fibrils
Protocol: FIG. 28: Binding kinetics of mAb 7D8 to synthetic Vλ6 Wil fibrils in the presence of the p39 and p41 peptides. The interaction of the mAb 7D8 at 6.6 nM with immobilized Vλ6 Will fibrils was measured by BIAcore in the presence of peptides p39 and p41 at 1 or 20 μg/mL.
To assess the specificity of the reaction and ensure that the binding of the mAbs with the fibrils occurred via the classic F(ab)-antigen interaction (as opposed to Fc-mediated binding or non-specific adsorption), binding data were acquired in the presence of the immunogen peptide (p39) at 20 and 1 μg/mL (FIG. 8). […] In the presence of 20 μg/mL p41 peptide, the binding kinetics for mAb 7D8 with Vλ6 Wil fibrils were identical to 7D8 alone.
(§1) Sensograms were run in HBS-EP buffer from BIAcore at 20 μL/min in the Fc1 (Vλ6 Wil fibrils) minus Fc-2 (control) mode. Samples containing mAb or mAb plus peptide inhibitors were injected (70 μL) and the sensograms collected using the delayed-wash function for 200 sec. Data were analyzed in the BIAevalutation software, using the 1:1 Langmuir model with mass-action correction.

peptide 66, CGGHEAT = molecular target: T1, peptide 66, CGGHEAT; assay: BIAcore, antibody binding to peptides
peptide 68, CGGHEDTM = molecular target: T2, peptide 68, CGGHEDTM; assay: BIAcore, antibody binding to peptides
peptide 69, CGGHEDTMA = molecular target: T3, peptide 69, CGGHEDTMA; assay: BIAcore, antibody binding to peptides
peptide 70, CGGHEDTMAD = molecular target: T4, peptide 70, CGGHEDTMAD; assay: BIAcore, antibody binding to peptides
[2] = molecular target: T5, murine AA amyloid (AA fibrils; amyloid …); assay: ELISA, purified mAb on mouse AA amyloid extract (AEF)
Protocol: (§2) Protein Mr markers (Std) are, form top to bottom: 176, 119, 75, 49, 39, 25 and 19 kDa. The interaction of the purified mAbs with immunizing peptide p#39, control peptide (p#41), murine and human AA extracts were determined by ELISA as described above.
(§3) In contrast, even at the highest concentration of mAb used (100 nM) there was little detectable binding to the p#41 peptide (FIG. 33—Each point represents the mean±SE, (n=3 at each concentration)). […] The calculated EC50 values for the mAbs binding to mouse AA extract were essentially identical to those obtained when the p#39 peptide was used as the substrate (FIG. 34; Table 5). […] Because the EC50 value for 7D8 mAb binding was the lowest of the 3 antibodies tested, Applicants selected this reagent for in vivo co-localization and imaging studies. The 2 amino acid substitutions in the human SAA sequence with respect to the murine protein affected the EC50 values.

[3] = molecular target: T6, human AA amyloid (human renal AA …); assay: ELISA, purified mAb on plate-dried human AA amyloid extract
Protocol: as §2, §3

[4] = molecular target: T9, synthetic Vλ6 Wil fibrils; assay: SPR (BIAcore), mAb at 6.6 nM over immobilized synthetic Vλ6 Wil fibrils
T9 construct: Fibrillar (aggregated) form, sonicated and amine-coupled to a CM-5 chip (about 16,000 RU); also called immobilized Vλ6 Wil fibrils
Protocol: Surface plasmon resonance was used to establish the binding kinetics of several monoclonal antibodies with Vλ6 Wil fibrils and monomer. […] The deflection (expressed in RU) during the binding phase was similar for mAbs 7D8 and 2A4 but was 50% lower for 8G9.
as §1

[5] = molecular target: T5, murine AA amyloid (AA fibrils; amyloid …); assay: ELISA, hybridoma culture supernatant on murine AA AEF; not corrected for mAb concentration
Description: The interaction of 2A4, 8G9 and 7D8 mAbs with AA amyloid was initially tested by ELISA and the data, given in FIG. 31, analyzed using SigmaPlot (SPSS Inc.). Each point represents the mean±SE (n=3). A culture supernatant from an irrelevant hybridoma was used as a control (Ctrl Culture Sup). […] (In addition, the immunohistochemical reactivity of the day 1 material was greater than the day 2 samples). […] Because of the low signal and high variability found with the culture supernatants and to determine more accurately the relative binding affinity of the mAbs for murine and human AA amyloid fibrils (as well as to provide material for in vivo biodistribution studies) it was necessary to isolate the mAbs by protein A affinity chromatography. The purity of the isolated mAbs was established SDS-PAGE using 10% acrylamide gels under reducing and non-reducing conditions (FIG. 32). Samples in lanes 1-4 treated with mercaptoethanol, lanes 5-9 without. Gel was stained with Coomassie blue: mAb 8G9, lanes 1 and 6; mAb 2A4, lanes 2 and 7; mAb 7D8, lanes 3 and 8; SP2/0 control supernatant, lanes 4 and 9; blank, lane 5. Protein Mr markers (Std) are, form top to bottom: 176, 119, 75, 49, 39, 25 and 19 kDa. The interaction of the purified mAbs with immunizing peptide p#39, control peptide (p#41), murine and human AA extracts were determined by ELISA as described above.

peptide 65, CGGHADT = molecular target: T7, peptide 65, CGGHADT; assay: BIAcore, antibody binding to peptides
peptide 71, CGGHED = molecular target: T8, peptide 71, CGGHED; assay: BIAcore, antibody binding to peptides

Binder | binding result [1] | binding result (peptide 66, CGGHEAT) | binding result (peptide 68, CGGHEDTM) | binding result (peptide 69, CGGHEDTMA) | binding result (peptide 70, CGGHEDTMAD) | EC50 [2] | EC50 [3] | Kd [4] | supernatant dilution after which reactivity is absent [5] | binding result (peptide 65, CGGHADT) | binding result (peptide 71, CGGHED)
GHEDTIADQE (also called p41; p#41) [peptide 41, GHEDTIADQE] | no binding (tested: 20 µg/mL) |  |  |  |  |  |  |  |  |  | 
murine monoclonal antibody 2A4 (ATCC Accession Number PTA-9662) (antibody, V domains shown, Murine IgG2b kappa; Used as hybridoma culture supernatant or as protein A-purified mAb; also called mAb 2A4; 2A4.20.44.77) VH: EVQLVESGGRLVQPKGSLKLSCAASGFTFNTYAMYWIRQAPGKGLEWVARIRSKSNNYAIYYADSVKDRFTIFRDDSQSMLYLQMNNLKTEDTAMYYCVRPYSDSFAYWGQGTLVTVSA VL: DVVMTQTPLSLPVSLGDQASISCRSSQSLVHSTGNTYLHWYLQKPGQSPKLLIYKVSNRFSGVPDRFSGSGSGTYFTLKISRVEAEDLGVYFCSQSTHVPFTFGGGTKLEIK |  | no binding | no binding | no binding | no binding | 4.09 nM | 26.4 nM | ~1 nM | ~64 fold dilution (1:x) |  | 
B1 |  | no binding | no binding | no binding | no binding | 1.84 nM | 13.3 nM | ~1 nM | ~64 fold dilution (1:x) | no binding | no binding
murine monoclonal antibody 8G9 (antibody, mouse IgG2b, V domains shown, Murine IgG2b kappa; also called mAb 8G9; 8G9.3.4.51.22) VH: EVQLVESGGRLVQPKGSLKLSCAASGFTFNTYAMYWIRQAPGKGLEWVARIRSKSNNYAIYYADSVKDRFTIFRDDSQSMLYLQMNNLKTEDTAMYYCVRPYSDSFAYWGQGTLVTVSA VL: DVVMTQTPLSLPVSLGDQASISCRSSQSLVHSTGNTYLHWYLQKPGQSPKLLIYKVSNRFSGVPDRFSGSGSGTYFTLKISRVEAEDLGVYFCSQSTHVPFTFGGGTKLEIK |  |  |  |  |  | 5.64 nM | 31.7 nM | ~1 nM | ~64 fold dilution (1:x) |  | 
